Paper PMC5026484

Key:
[1] = molecular target: bMERB domain (Rab binding domain) of Mical-cL, residues 534-683 (human) (UniProt O94851); experiment: ITC; iTC200, 25°C; 400 µM Rab titrated into 20–40 µM bMERB domain in the cell; 20 mM Hepes pH 7.5, 50 mM NaCl, 2 mM MgCl2, 1 mM TCEP
Slac2-a/melanophilin = Slac2-a/melanophilin (UniProt Q91V27); details: cited from earlier work
Slp2-a = Slp2-a (UniProt Q99N50); details: cited from earlier work
Sequence of Slp2-a (Q99N50 whole entry): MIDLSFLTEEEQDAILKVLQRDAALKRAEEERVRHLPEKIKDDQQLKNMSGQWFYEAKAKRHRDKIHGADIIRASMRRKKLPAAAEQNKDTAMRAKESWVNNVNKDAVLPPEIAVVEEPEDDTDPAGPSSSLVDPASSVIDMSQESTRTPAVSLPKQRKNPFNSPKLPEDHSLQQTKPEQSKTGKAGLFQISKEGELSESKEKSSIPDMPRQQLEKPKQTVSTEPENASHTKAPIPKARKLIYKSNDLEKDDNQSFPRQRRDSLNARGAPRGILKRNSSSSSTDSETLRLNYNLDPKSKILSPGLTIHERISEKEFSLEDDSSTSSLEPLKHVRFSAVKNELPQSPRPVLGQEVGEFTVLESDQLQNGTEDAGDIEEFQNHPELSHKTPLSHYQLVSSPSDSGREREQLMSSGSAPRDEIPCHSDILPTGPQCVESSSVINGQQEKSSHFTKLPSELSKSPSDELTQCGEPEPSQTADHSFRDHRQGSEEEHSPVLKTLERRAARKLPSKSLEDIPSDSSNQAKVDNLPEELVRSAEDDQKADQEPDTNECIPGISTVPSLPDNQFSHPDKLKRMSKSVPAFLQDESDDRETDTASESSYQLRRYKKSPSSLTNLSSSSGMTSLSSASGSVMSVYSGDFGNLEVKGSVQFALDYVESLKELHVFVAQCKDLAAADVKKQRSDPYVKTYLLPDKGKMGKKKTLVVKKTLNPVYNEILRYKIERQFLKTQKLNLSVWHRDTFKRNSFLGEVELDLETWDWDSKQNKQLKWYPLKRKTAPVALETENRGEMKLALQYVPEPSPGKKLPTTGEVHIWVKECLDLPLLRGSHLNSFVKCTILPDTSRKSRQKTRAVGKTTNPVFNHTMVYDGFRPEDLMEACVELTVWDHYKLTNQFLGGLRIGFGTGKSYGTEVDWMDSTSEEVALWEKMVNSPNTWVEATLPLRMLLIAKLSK

Sequence of Rab27 (Q9ERI2 2-221): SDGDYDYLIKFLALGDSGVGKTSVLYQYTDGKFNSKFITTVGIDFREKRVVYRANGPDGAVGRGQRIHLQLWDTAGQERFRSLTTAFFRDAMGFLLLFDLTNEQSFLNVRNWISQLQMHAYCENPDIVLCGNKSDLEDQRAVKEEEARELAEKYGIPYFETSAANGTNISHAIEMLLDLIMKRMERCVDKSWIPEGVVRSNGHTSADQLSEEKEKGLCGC
Sequence of bMERB domain (Rab binding domain) of Mical-cL, residues 534-683 (human) (O94851 1796-1945): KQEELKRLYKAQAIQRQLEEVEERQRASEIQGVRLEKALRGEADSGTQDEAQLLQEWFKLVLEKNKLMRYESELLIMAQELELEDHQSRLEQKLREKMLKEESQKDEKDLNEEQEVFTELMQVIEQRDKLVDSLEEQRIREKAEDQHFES
Sequence of Slac2-a/melanophilin (Q91V27 whole entry): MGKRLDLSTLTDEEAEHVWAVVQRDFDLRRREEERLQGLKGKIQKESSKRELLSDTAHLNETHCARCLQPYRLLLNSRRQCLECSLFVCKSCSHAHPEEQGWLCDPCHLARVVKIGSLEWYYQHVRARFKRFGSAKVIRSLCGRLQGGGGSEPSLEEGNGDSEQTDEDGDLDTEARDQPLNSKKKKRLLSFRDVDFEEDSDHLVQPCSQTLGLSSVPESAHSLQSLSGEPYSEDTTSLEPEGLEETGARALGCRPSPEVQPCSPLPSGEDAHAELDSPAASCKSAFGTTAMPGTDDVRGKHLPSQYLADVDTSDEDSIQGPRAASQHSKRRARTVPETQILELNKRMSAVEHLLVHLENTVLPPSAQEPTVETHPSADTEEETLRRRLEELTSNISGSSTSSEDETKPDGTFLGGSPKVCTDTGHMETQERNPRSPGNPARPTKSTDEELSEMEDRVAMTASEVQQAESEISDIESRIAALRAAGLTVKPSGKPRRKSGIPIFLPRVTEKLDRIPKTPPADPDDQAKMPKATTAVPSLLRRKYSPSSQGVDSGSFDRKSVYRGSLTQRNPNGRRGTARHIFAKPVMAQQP

Substance: Rab1R8N, chimera of Rab1b with the 4 N-terminal residues of Rab8 (from UniProt Q9H0U4 5-201) (natural protein)
- Kd [1]: 1100 nM

Substance: Rab27 (from UniProt Q9ERI2)
- Kd (Slac2-a/melanophilin): 112 nM
- Kd (Slp2-a): 13.4 nM
